# In patent US20180371086A1:
# What was measured:
# Experiment in all cases: cell-based or functional assay
# [1] = target: HIV-1 Env of isolate 8134 (HIV-1)
# [2] = target: HIV-1 Env of strain BaL (HIV-1)
# [3] = target: HIV-1 Env of isolate 8117 (HIV-1)
# [4] = target: HIV-1 Env of clone CH106 (HIV-1)
# [5] = target: HIV-1 Env of isolate 8106 (HIV-1)
# [6] = target: HIV-1 Env of clone CH058 (HIV-1)
# [7] = target: HIV-1 Env of isolate 92US712 (HIV-1)
# [8] = target: HIV-1 Env of clone THRO (HIV-1)
# [9] = target: HIV-1 Env of isolate 8359 (HIV-1)
# [10] = target: HIV-1 Env of isolate 8320 (HIV-1)
# [11] = target: HIV-1 Env of clone WITO (HIV-1)
# [12] = target: HIV-1 Env of isolate 8398 (HIV-1)
# [13] = target: HIV-1 Env of clone CH077 (HIV-1)
# [14] = target: HIV-1 Env of isolate 8110 (HIV-1)
# [15] = target: HIV-1 Env of clone RHPA (HIV-1)
# [16] = target: HIV-1 Env of isolate 8176 (HIV-1)
# [17] = target: HIV-1 Env of isolate 8318 (HIV-1)
# [18] = target: HIV-1 Env of isolate 92HT593 (HIV-1)
# [19] = target: HIV-1 Env of clone REJO (HIV-1)
# [20] = target: HIV-1 Env gp120 of virus WITO, on infected cells (HIV-1)
# [21] = target: HIV-1 Env of isolate 92US727 (HIV-1)
# [22] = target: HIV-1 Env gp120 of virus 92US727, on infected cells (HIV-1)
# [23] = target: HIV-1 Env gp120 of virus CH058, on infected cells (HIV-1)
substance,measurement,setting,value
PGT-121.60 (antibody),"IC50 (neutralization, CEM.NKr.CCR5.LucR based assay)",[1],0.062 µg/mL
same,"IC50 (neutralization, CEM.NKr.CCR5.LucR based assay)",[2],0.015 µg/mL
same,"IC50 (neutralization, CEM.NKr.CCR5.LucR based assay)",[3],> 100 µg/mL
same,"IC50 (neutralization, CEM.NKr.CCR5.LucR based assay)",[4],> 100 µg/mL
same,"IC50 (neutralization, CEM.NKr.CCR5.LucR based assay)",[5],0.091 µg/mL
same,"IC50 (neutralization, CEM.NKr.CCR5.LucR based assay)",[6],0.063 µg/mL
same,"IC50 (neutralization, CEM.NKr.CCR5.LucR based assay)",[7],0.019 µg/mL
same,"IC50 (neutralization, CEM.NKr.CCR5.LucR based assay)",[8],> 100 µg/mL
same,"IC50 (neutralization, CEM.NKr.CCR5.LucR based assay)",[9],0.337 µg/mL
same,"IC50 (neutralization, CEM.NKr.CCR5.LucR based assay)",[10],> 100 µg/mL
same,"IC50 (neutralization, CEM.NKr.CCR5.LucR based assay)",[11],1.05 µg/mL
same,"IC50 (neutralization, CEM.NKr.CCR5.LucR based assay)",[12],0.028 µg/mL
same,"IC50 (neutralization, CEM.NKr.CCR5.LucR based assay)",[13],> 100 µg/mL
same,"IC50 (neutralization, CEM.NKr.CCR5.LucR based assay)",[14],0.514 µg/mL
same,"IC50 (neutralization, CEM.NKr.CCR5.LucR based assay)",[15],0.534 µg/mL
same,"IC50 (neutralization, CEM.NKr.CCR5.LucR based assay)",[16],0.028 µg/mL
same,"IC50 (neutralization, CEM.NKr.CCR5.LucR based assay)",[17],0.048 µg/mL
same,"IC50 (neutralization, CEM.NKr.CCR5.LucR based assay)",[18],0.024 µg/mL
same,"IC50 (neutralization, CEM.NKr.CCR5.LucR based assay)",[19],> 100 µg/mL
same,killing EC50; HIV-infected CD4 T cells (WITO); effector cells Eff Memory CD4,[20],> 10 µg/mL
same,killing EC50; HIV-infected CD4 T cells (WITO); effector cells Memory CD4,[20],> 10 µg/mL
same,killing EC50; HIV-infected CD4 T cells (WITO); effector cells Memory CD8,[20],> 10 µg/mL
same,killing EC50; HIV-infected CD4 T cells (WITO); effector cells γ Δ CD4,[20],0.36 µg/mL
same,killing EC50; HIV-infected CEM-NKr-CCR5-LucR CD4 T cells; PBMC donor 4176; virus WITO,[20],> 100 µg/mL
same,killing EC50; HIV-infected CEM-NKr-CCR5-LucR CD4 T cells; PBMC donor 4288; virus WITO,[20],0.767 µg/mL
same,killing Emax; HIV-infected CD4 T cells (WITO); effector cells Eff Memory CD4,[20],0%
same,killing Emax; HIV-infected CD4 T cells (WITO); effector cells Memory CD4,[20],9%
same,killing Emax; HIV-infected CD4 T cells (WITO); effector cells Memory CD8,[20],9%
same,killing Emax; HIV-infected CD4 T cells (WITO); effector cells γ Δ CD4,[20],18%
same,killing Emax; HIV-infected CEM-NKr-CCR5-LucR CD4 T cells; PBMC donor 4176; virus WITO,[20],0%
same,killing Emax; HIV-infected CEM-NKr-CCR5-LucR CD4 T cells; PBMC donor 4288; virus WITO,[20],46%
same,"IC50 (neutralization, CEM.NKr.CCR5.LucR based assay)",[21],0.013 µg/mL
same,Maximum percent of HIV-infected cells killed; PBMC-derived effector cells; donor 1004344; virus 92US727,[22],63.7%
same,Maximum percent of HIV-infected cells killed; tonsil-derived effector cells; donor 1004344; virus 92US727,[22],0%
same,Potency (IC50) of killing HIV-infected cells; PBMC-derived effector cells; donor 1004344; virus 92US727,[22],0.014 µg/mL
same,Potency (IC50) of killing HIV-infected cells; tonsil-derived effector cells; donor 1004344; virus 92US727,[22],> 10 µg/mL
same,Maximum percent of HIV-infected cells killed; PBMC-derived effector cells; donor 1003277; virus CHO58,[23],66.2%
same,Maximum percent of HIV-infected cells killed; PBMC-derived effector cells; donor 1004344; virus CHO58,[23],82.8%
same,Maximum percent of HIV-infected cells killed; tonsil-derived effector cells; donor 1003277; virus CHO58,[23],10.9%
same,Maximum percent of HIV-infected cells killed; tonsil-derived effector cells; donor 1004344; virus CHO58,[23],0%
same,Potency (IC50) of killing HIV-infected cells; PBMC-derived effector cells; donor 1003277; virus CHO58,[23],0.706 µg/mL
same,Potency (IC50) of killing HIV-infected cells; PBMC-derived effector cells; donor 1004344; virus CHO58,[23],0.094 µg/mL
same,Potency (IC50) of killing HIV-infected cells; tonsil-derived effector cells; donor 1003277; virus CHO58,[23],> 10 µg/mL
same,Potency (IC50) of killing HIV-infected cells; tonsil-derived effector cells; donor 1004344; virus CHO58,[23],> 10 µg/mL
